We go through one substance from patent US9259432B1, “Composition and methods for targeted delivery of a therapeutic compound to the brain or spinal cord of a subject for treatment of neurodegenerative diseases” (Parminder J. S. Vig, priority 2011, dated 2016).

Usually Kd stands for the free concentration of one partner at which half of the binding sites on the other are occupied at equilibrium, for simple one-to-one binding.

Assay [1] deals with T1, S100B (Homo sapiens, UniProt P04271).
T1 construct: purchased Sigma-Aldrich
T1 sequence (P04271 2-92 limits assumed): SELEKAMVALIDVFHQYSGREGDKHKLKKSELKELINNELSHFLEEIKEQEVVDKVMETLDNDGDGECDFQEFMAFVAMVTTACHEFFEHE
Briefly: Thermal pull-down assay of ELP polypeptide with S100B. It is filed as binding. The settings on record: 60 μM polypeptide, western blot with S100B antibody. Here is the method:
FIG. 9 is a blot showing that CPP-ELP-TRTK12 interacts with S100B protein in vitro. Solutions containing 60 μM Synb1-ELP-TRTK12 or Synb1-ELP were mixed with or without 1 μM S100B in PBS for 30 min at 37° C. The solutions were then incubated in a hot water bath maintained at 50° C. for 5 minutes to induce SynB1-ELP-TRTK12 aggregation. After heating, the solutions were centrifugated at 14,000 rpm to recover the ELP polypeptide aggregates (pellets). The ELP polypeptide pellets were washed 3 times with PBS and reheated and pelleted between washes. To assess ELP polypeptide-S100B interactions, the remaining ELP pellets were subjected to western blotting using a S100B antibody.
Shown are the turbidity assay results of various concentrations of (b) Synb1-ELP-GGC and (c) Synb1-ELP-TRTK heated from 25° C. to 75° C. […] (d) Shown is the thermal pull-down assay procedure, where a solution containing S100B and Synb1-ELP-TRTK protein are allowed to interact at 37° C. in a microcentrifuge tube. […] Once the supernatant is removed the protein pellet can be analyzed by western blotting techniques to reveal protein-protein interactions. […] Solutions containing 60 μM Synb1-ELP-TRTK or Synb1-ELP-GGC (control peptide) were mixed with or without 1 μM S100B and subjected to thermal pull-down assay procedure and analyzed by western blotting using an S100B antibody. […]
On the technique in general: Immunoblotting shows a protein as a band on a membrane.

The target in assay [2] is T1, S100B. Briefly: Tryptophan fluorescence quenching binding studies. Here is the method: The tryptophan fluorescence of 5.0 μM Synb1-ELP-TRTK, 5.0 μM Synb1-ELP-GGC and 5.0 μM TRTK12 were measured using an Aminco Bowman Series 2 fluorescent spectrophotometer with and Excitation wavelength of 295 nm and an Emission wavelength of 350 nm in 25 mM TrisHCL and 0.1 mM CaCl2 at 12° C. (to avoid aggregation of ELP) or in a solution of containing 25 mM TrisHCL, 0.1 mM CaCl2 and 1 mM EGTA at 12° C. S100B was titrated from 100 nM up to 3.0 μM into the various peptide solutions and changes in tryptophan fluorescence were recorded into an Excel file and graphs produced. A Fluorescence % was plotted against free S100B concentration using GraphPad Prism software. A Fluorescence % was calculated as follows: [(Maximum fluorescence−Observed fluorescence)/(Maximum fluorescence−Minimum Fluorescence)]×100%. Where the maximum fluorescence is the fluorescence of 5.0 μM Synb1-ELP-TRTK or 5.0 μM TRTK12 before titration of S100B and the minimum fluorescence is the fluorescence of 5.0 μM Synb1-ELP-TRTK or 5.0 μM TRTK12 fully saturated with bound S100B. […]
Alterations in the binding affinity of a peptide due to its fusion to ELP have never been studied previously. […] Fluorescent spectroscopy is a sensitive tool used to monitor changes in the local environment of tryptophan residues that occur during a protein-ligand binding event; furthermore, changes in tryptophan fluorescence can be used to calculate binding affinity (Weljie and Vogel, 2000, Bocedi et al., 2004). Previous work has shown that S100B binding reduces tryptophan fluorescence of TRTK12 and like peptides (Ivanenkov et al., 1995). The tryptophan fluorescence of 5.0 μM Synb1-ELP-TRTK and 5.0 μM Synb1-ELP-GGC were measured using a fluorescent spectrophotometer with an Excitation wavelength of 295 nm and an Emission wavelength of 350 nm in 25 mM TrisHCL and 0.1 mM CaCl2 at 12° C. At 295 nm, tryptophan emission spectrum is dominant over the weaker tyrosine and phenylalanine fluorescence (Vivian and Callis, 2001). […] W755 has very little fluorescence at 350 nm which may be due to the 150 neighboring VPGXG repeats of ELP (FIG. 12A). […]

As for “Synb1-ELP-TRTK: thermally responsive S100B inhibitory polypeptide: Synb1 cell penetrating peptide, elastin-like polypeptide (ELP) and TRTK12 peptide fused”, the “interaction with S100B dimer and monomer (FIG. 9)” value with S100B [1] (1 μM S100B in PBS, aggregation at 50° C.) is reported as “strong interaction”. Further, the “interaction with S100B (FIG. 11E)” value with S100B [1] (1 μM S100B, thermal cycling at 42° C.) is “bound both S100B monomers and dimers”. Moreover, the “impact on S100B binding affinity compared to the TRTK12 peptide alone” value with S100B [2] was found to be 2 fold. For the same substance, the equilibrium dissociation constant (Kd) with S100B [2] (5.0 μM peptide, 25 mM TrisHCL, 0.1 mM CaCl2, 12° C.) turned out to be 518 ± 80 nM. In the assay with S100B [2] (25 mM TrisHCL, 0.1 mM CaCl2 and 1 mM EGTA), the “effect of S100B titration on tryptophan fluorescence at 350 nm with calcium depleted” value is “no effect”.
